Assay results from US20090004190A1, “Rage Fusion Proteins And Methods Of Use” (priority 2006, published 2009).

Biological target: Fc receptor on THP-1 cells
Test: cell-based or functional assay

TNF secreted by THP-1 cells in wells coated with 10 µg/well heat aggregated protein (ELISA, 24 h): > 40 ng/well
Substance: human IgG1 (heat aggregated, coated on wells) (antibody)
